Source: PMC12442346, “Novel regulatory mechanism of choline-O-sulfate and choline catabolism by two BetIs in Alphaproteobacteria” (Applied and Environmental Microbiology, 2025)

Assays:
[1] = biological target: T1, BetI2 (Ruegeria pomeroyi, UniProt Q5LUG8); experiment: microscale thermophoresis of BetI2 binding to DNA probes with or without choline; details: effector; DNA probes P1 (betI2 box 1) and P2 (betI2 box 2); 1x PBS pH 7.4, 0.05% Tween-20, 25 C; labelled protein
T1 construct: gene betI; full length gene in pET28a(+), C-terminal His-tag, expressed in E. coli BL21(DE3), Ni-NTA and gel filtration; RED-Tris-NTA labelled for MST
T1 sequence (Q5LUG8 1-193): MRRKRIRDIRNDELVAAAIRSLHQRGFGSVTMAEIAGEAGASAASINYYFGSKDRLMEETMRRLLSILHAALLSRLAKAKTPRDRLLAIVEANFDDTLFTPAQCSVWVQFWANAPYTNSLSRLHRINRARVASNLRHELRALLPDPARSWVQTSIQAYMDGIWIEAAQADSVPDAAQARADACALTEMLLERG

[2] = tested on: T2, BetI2 (Ruegeria pomeroyi DSS-3), ORF:6e67dd5c; experiment: EMSA; details: EMSA: 2 mM EDTA, 20 mM KCl, 0.5 mM DTT, 4% Ficoll-400, pH 8.0, 2 ug poly(dI-dC), 20 uL, protein 0-28 uM; MST: 1x PBS pH 7.4, 0.05% Tween-20, 25 C
T2 sequence: T1 sequence (Q5LUG8 1-193)

[3] = tested on: BetI2 (Ruegeria pomeroyi DSS-3); experiment: MST; details: EMSA: 2 mM EDTA, 20 mM KCl, 0.5 mM DTT, 4% Ficoll-400, pH 8.0, 2 ug poly(dI-dC), 20 uL, protein 0-28 uM, MST: 1x PBS pH 7.4, 0.05% Tween-20, 25 C

Q: For `C[N+](C)(C)CCO` [choline], which “microscale thermophoresis of BetI2 binding to DNA probes with or without choline” value [1] is on record?
A: The value was “The affinities of BetI2 to the IGR probe variants with or without choline were determined”.

Q: How did the binding [2] turn out when “GGCCATATTGGCCAATCGGCCAAAGGGTTCAAGTTTAAAGGATTATCGAAAAACTTGAACGACTGTTCAAGTTTTGGTTCTTTTGATCAGGTTATTGTGCTAATTTCCCGCATCATTCGACCCGGCCCGGAGGAGAGGGCGGGCGTGAACCCAGGGAGGGACCATGAT (double strand) [IGR (EMSA probe)]” was run?
A: Its binding is “binds”.

Q: With IGR (MST probe) as the molecule, how does the Kd ([3]; no choline stated) read?
A: The Kd was 870 nM.

Q: With P1 (IGR variant, betI2 box 1 only) as the molecule, how does the binding signal (fold affinity of P1 over P2) ([3]; choline) read?
A: The binding signal (fold affinity of P1 over P2) was 2.

Q: What about the binding signal (fold Kd of P1 over P2) ([3]; no choline) of the same molecule?
A: The binding signal (fold Kd of P1 over P2) was 4.

Q: What does the source list for P2 (IGR variant, betI2 box 2 only)?
A: binding signal (affinity relative to P1 with choline) [3]: 0.5; binding signal ([3]; no choline, scale: reference for P1 without choline): 1
